± gives the standard error. For some of these results: Variants at the floor of the assay were thinned out.
B1: glmS ribozyme (parent)
chain: AUAAAAGCGCCAGAACUACAGAAAUGUAGUUGACGAGGAGGAGGUUUAUCGAAUUUUCGGCGGAUGCCUCCAAA

Columns and labels:
Details in all cases: with glucosamine-6-phosphate
glucosamine-6-phosphate [1] = variants of: B1; experiment: kcat; higher = faster cleavage; RNA array
Procedure, shortened: (§1)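 Barcoded glmS ribozyme variants on sequenced MiSeq chips were transcribed in situ by E. coli RNA polymerase and tracked through a hybridised Cy3 probe at 37 °C. Glucosamine-6-phosphate (40 μM to 10 mM) in HEPES/KCl/Mg(OAc)2 buffer was flowed in, and tiles were imaged over ~14 h. Signals were normalised to baseline and to non-cleaving reference variants; per-tile medians were fit to one- or two-exponential decays to give kobs. kcat and KM came from weighted Michaelis–Menten fits across concentrations.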

glucosamine-6-phosphate [2] = variants of: B1; experiment: self-cleavage kobs at 160 uM GlcN6P; higher = faster cleavage; RNA array
Procedure, shortened: as §1

glucosamine-6-phosphate [3] = variants of: B1; experiment: self-cleavage kobs at 640 uM GlcN6P; higher = faster cleavage; RNA array
Procedure, shortened: as §1

glucosamine-6-phosphate [4] = variants of: B1; experiment: self-cleavage kobs at 40 uM GlcN6P; higher = faster cleavage; RNA array
Procedure, shortened: as §1

glucosamine-6-phosphate [5] = variants of: B1; experiment: self-cleavage kobs at 10000 uM GlcN6P; higher = faster cleavage; RNA array
Procedure, shortened: as §1

glucosamine-6-phosphate [6] = variants of: B1; experiment: KM; higher = weaker cofactor use; RNA array
Procedure, shortened: as §1

glucosamine-6-phosphate [7] = variants of: B1; experiment: self-cleavage kobs at 2500 uM GlcN6P; higher = faster cleavage; RNA array
Procedure, shortened: as §1

Variant	kcat (glucosamine-6-phosphate [1])	self-cleavage kobs at 160 uM GlcN6P (glucosamine-6-phosphate [2])	self-cleavage kobs at 640 uM GlcN6P (glucosamine-6-phosphate [3])	self-cleavage kobs at 40 uM GlcN6P (glucosamine-6-phosphate [4])	self-cleavage kobs at 10000 uM GlcN6P (glucosamine-6-phosphate [5])	KM (glucosamine-6-phosphate [6])	self-cleavage kobs at 2500 uM GlcN6P (glucosamine-6-phosphate [7])
A33C U69A	< 1e-05 s⁻¹	< 1e-05 s⁻¹	< 1e-05 s⁻¹	–	–	–	–
A36U A52G	1.01e-05 ± 3e-06 s⁻¹	–	–	< 1e-05 s⁻¹	< 1e-05 s⁻¹	–	–
U31C U45A	0.0175 ± 0.0045 s⁻¹	0.000613 ± 0.00012 s⁻¹	0.00258 ± 0.00062 s⁻¹	0.000212 ± 6e-05 s⁻¹	0.0108 ± 0.004 s⁻¹	3890 ± 1200 µM	0.00783 ± 0.0016 s⁻¹
A33U C70U	0.000127 ± 1.1e-05 s⁻¹	–	3.24e-05 ± 9.8e-06 s⁻¹	–	0.0001 ± 6.7e-06 s⁻¹	2760 ± 730 µM	5.5e-05 ± 8.7e-06 s⁻¹
G32U C70G	7.04e-05 ± 1e-05 s⁻¹	–	8.68e-05 ± 1.2e-05 s⁻¹	–	7.56e-05 ± 4.5e-06 s⁻¹	–	5.3e-05 ± 5.7e-06 s⁻¹
A33U U54A C70A	4.75e-05 ± 1.3e-05 s⁻¹	–	5.86e-05 ± 2e-05 s⁻¹	–	–	–	–
A33G C68G	3.02e-05 ± 6e-06 s⁻¹	3.17e-05 ± 1.3e-05 s⁻¹	3.59e-05 ± 1.5e-05 s⁻¹	–	–	–	–
A36C C50G G51A	< 1e-05 s⁻¹	< 1e-05 s⁻¹	–	–	–	–	–
A33C C70U	1.19e-05 ± 4.5e-06 s⁻¹	–	–	–	–	–	–
G35U G37A G60U	< 1e-05 s⁻¹	–	–	–	–	–	< 1e-05 s⁻¹
U31G A33U C70U	9.54e-05 ± 1.9e-05 s⁻¹	–	–	–	7.8e-05 ± 2e-05 s⁻¹	–	–
A36C U54G	< 1e-05 s⁻¹	–	–	–	< 1e-05 s⁻¹	–	< 1e-05 s⁻¹
A36C U54A	< 1e-05 s⁻¹	< 1e-05 s⁻¹	–	–	–	–	–
G32A C50A	< 1e-05 s⁻¹	–	–	–	–	–	–
U31G G59A	0.000131 ± 8.6e-06 s⁻¹	–	–	< 1e-05 s⁻¹	4.18e-05 ± 1.3e-05 s⁻¹	–	–
A36G G63U C70A	1.84e-05 ± 7.8e-06 s⁻¹	–	–	–	–	–	–
U31G C71U	0.0144 ± 0.0067 s⁻¹	0.000479 ± 8.2e-05 s⁻¹	0.00235 ± 0.00045 s⁻¹	0.000277 ± 3.1e-05 s⁻¹	0.0107 ± 0.0016 s⁻¹	–	0.00836 ± 0.0019 s⁻¹
G32C C58A	0.000602 ± 8.9e-05 s⁻¹	–	4.35e-05 ± 8.2e-06 s⁻¹	–	0.000333 ± 4.8e-05 s⁻¹	8220 ± 1700 µM	0.000139 ± 1.7e-05 s⁻¹
G32C C58U	3.33e-05 ± 5.5e-06 s⁻¹	–	–	–	–	–	–
U31G G41A	0.000638 ± 6.8e-05 s⁻¹	7.06e-05 ± 1.2e-05 s⁻¹	0.000224 ± 2.5e-05 s⁻¹	–	0.000506 ± 9.5e-05 s⁻¹	1220 ± 220 µM	0.000482 ± 6.9e-05 s⁻¹
G32C G51U	< 1e-05 s⁻¹	–	–	–	–	–	–

Variant	kcat (glucosamine-6-phosphate [1])	self-cleavage kobs at 160 uM GlcN6P (glucosamine-6-phosphate [2])	self-cleavage kobs at 640 uM GlcN6P (glucosamine-6-phosphate [3])	self-cleavage kobs at 40 uM GlcN6P (glucosamine-6-phosphate [4])	self-cleavage kobs at 10000 uM GlcN6P (glucosamine-6-phosphate [5])	KM (glucosamine-6-phosphate [6])	self-cleavage kobs at 2500 uM GlcN6P (glucosamine-6-phosphate [7])
G35U A36C	< 1e-05 s⁻¹	< 1e-05 s⁻¹	–	< 1e-05 s⁻¹	< 1e-05 s⁻¹	–	< 1e-05 s⁻¹
A33U U57A	< 1e-05 s⁻¹	–	–	–	–	–	–
U31G U55C	0.00961 ± 0.0014 s⁻¹	0.001 ± 0.00031 s⁻¹	0.00232 ± 0.00064 s⁻¹	0.000203 ± 4.2e-05 s⁻¹	0.00884 ± 0.0015 s⁻¹	1860 ± 410 µM	0.00461 ± 0.0011 s⁻¹
G32C C68U	1.25e-05 ± 1.1e-06 s⁻¹	< 1e-05 s⁻¹	–	–	–	1350 ± 620 µM	–
C34U G35A C68U	1.41e-05 ± 3.1e-06 s⁻¹	–	–	–	–	–	–
G32U U55G U56A	0.000802 ± 4.9e-05 s⁻¹	–	8.29e-05 ± 1.1e-05 s⁻¹	–	0.000509 ± 0.00011 s⁻¹	5530 ± 450 µM	0.000255 ± 4.3e-05 s⁻¹
U31C G38U	< 1e-05 s⁻¹	–	–	< 1e-05 s⁻¹	< 1e-05 s⁻¹	–	–
A33U G66A	6.76e-05 ± 1.2e-06 s⁻¹	–	–	–	5.28e-05 ± 6.4e-06 s⁻¹	2790 ± 180 µM	3.2e-05 ± 1e-05 s⁻¹
A33U G66C	1.44e-05 ± 2.1e-06 s⁻¹	–	–	–	–	3040 ± 1500 µM	–
C34G U69A	3.79e-05 ± 1.1e-05 s⁻¹	–	5.16e-05 ± 1.3e-05 s⁻¹	–	–	–	3.05e-05 ± 1.3e-05 s⁻¹
G32U A53U	0.000907 ± 0.00012 s⁻¹	1.91e-05 ± 5.9e-06 s⁻¹	0.000111 ± 6.5e-06 s⁻¹	–	0.000603 ± 3.5e-05 s⁻¹	4580 ± 950 µM	0.000361 ± 2.5e-05 s⁻¹
G32U A53C	0.000282 ± 0.00012 s⁻¹	–	0.000104 ± 2.3e-05 s⁻¹	–	0.000275 ± 4.6e-05 s⁻¹	–	0.000105 ± 2.7e-05 s⁻¹
G32U A53G	0.00107 ± 0.00015 s⁻¹	5.42e-05 ± 9e-06 s⁻¹	0.000174 ± 1.8e-05 s⁻¹	–	0.000847 ± 7.5e-05 s⁻¹	3390 ± 750 µM	0.000375 ± 5.5e-05 s⁻¹
G32A A53U	0.00208 ± 0.00084 s⁻¹	0.000175 ± 3.9e-05 s⁻¹	0.000595 ± 0.0001 s⁻¹	3.74e-05 ± 9.9e-06 s⁻¹	0.00228 ± 0.0003 s⁻¹	–	0.00067 ± 0.00016 s⁻¹
C34A G51U C67U	0.000275 ± 1.8e-05 s⁻¹	–	4.9e-05 ± 2e-05 s⁻¹	–	0.000213 ± 4.5e-05 s⁻¹	2730 ± 390 µM	0.00014 ± 3.7e-05 s⁻¹
G32A C68G	3.18e-05 ± 4.2e-06 s⁻¹	–	–	–	2.81e-05 ± 9.3e-06 s⁻¹	–	3.93e-05 ± 1.4e-05 s⁻¹
G32A C70G	0.000111 ± 1.6e-05 s⁻¹	2.97e-05 ± 1.1e-05 s⁻¹	9.43e-05 ± 1.5e-05 s⁻¹	–	0.00011 ± 1.3e-05 s⁻¹	–	6.07e-05 ± 2.4e-05 s⁻¹
A33U A53U G66A	7.62e-05 ± 1.7e-06 s⁻¹	–	–	–	–	–	–
A33C U65A	4.76e-05 ± 2.3e-06 s⁻¹	–	–	–	4.47e-05 ± 1.6e-05 s⁻¹	617 ± 240 µM	–
A36C G59A	< 1e-05 s⁻¹	–	–	–	< 1e-05 s⁻¹	–	< 1e-05 s⁻¹

Source: the supplement of paper PMC7125110
